Publication PMC10477243, “Molecular basis of RNA-binding and autoregulation by the cancer-associated splicing factor RBM39” (Nature Communications, 2023)
Residue numbers refer to the chain shown, from its start. One block for each binder: values may come before it.

Tests used:
[1] = molecular target: T1, RBM39 RRM2 (UniProt Q14498 250-328); assay: NMR titration; ITC: RRM2/RRM12 in 10 mM Na phosphate pH 6.8, 50 mM NaCl, 2 mM DTT; RRM1 in the same at pH 5.5; 40 C (RRM12 with ssSL3 at 35 C); NMR 200 uM protein in the same; conditions: protein: recombinant; tags: His tag removed by thrombin
T1 sequence: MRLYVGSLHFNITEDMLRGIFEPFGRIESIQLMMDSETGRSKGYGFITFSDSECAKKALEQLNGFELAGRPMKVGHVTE

[2] = molecular target: T2, SF3b155 ULM peptide KSRWDETP; assay: ITC; PEAQ-ITC (Malvern); Buffer G (sodium phosphate 10 mM pH 7.2, NaCl 50 mM, TCEP 0.5 mM); protein 300 μM in the syringe, ligand (peptide) 30 μM in the cell; conditions: both partners purified
T2 construct: ULM (UHM ligand motif) of SF3b155 (SF3B1)
T2 peptide: KSRWDETP

[3] = molecular target: T3, RBM39 RRM2 F259A (UniProt Q14498 250-328, F259A); assay: ITC; n=1.27; ITC: RRM2/RRM12 in 10 mM Na phosphate pH 6.8, 50 mM NaCl, 2 mM DTT; RRM1 in the same at pH 5.5; 40 C (RRM12 with ssSL3 at 35 C); NMR 200 uM protein in the same; conditions: protein: recombinant
T3 sequence: T1 sequence with F10A

[4] = molecular target: T1, RBM39 RRM2; assay: ITC; n=1.18; ITC: RRM2/RRM12 in 10 mM Na phosphate pH 6.8, 50 mM NaCl, 2 mM DTT; RRM1 in the same at pH 5.5; 40 C (RRM12 with ssSL3 at 35 C); NMR 200 uM protein in the same; conditions: protein: recombinant; tags: His tag removed by thrombin

Binder: CCUCCCA (ssRNA) [mutBS1]
binding result [1]: no binding

Kd [2]: 19 ± 5 µM
dH [2]: -20 kcal/mol
stoichiometry N [2]: 0.65
B1: RBM39 RRM3 (domain or fragment)
chain: VQPLATQCFQLSNMFNPQTEEEVGWDTEIKDDVIEECNKHGGVIHIYVDKNSAQGNVYVKCPSIAAAIAAVNALHGRWFAGKMITAAYVPLPTYHNLFPDSMTATQLLVPSRR
modifications: Construct limits not printed (cited paper); 418-530 is the customary RRM3/UHM construct, covering the annotated RRM3 445-508 and the C-terminus

Kd [2]: > 100 µM
B2: RBM39 mRRM3 (domain or fragment)
chain: B1 chain with R77A, F79A
modifications: Construct limits not printed (cited paper); same conventional limits as wild-type RRM3

Binder: AGCUUUG (ssRNA)
Kd [3]: 41 ± 10 µM
Kd [4]: 9 ± 2 µM

Binder: CUCUUUG (ssRNA) [BS1]
binding result [1]: binds
